Consider two molecules from CN113583116A (YANG SHENG TANG CO LTD; UNIV XIAMEN, dated 2021).

Assay [1] addresses T1, SARS-CoV-1的RBD重组蛋白 SARS-CoV1-RBD (SARS-CoV-1, UniProt P59594 306-527). Put plainly: indirect ELISA, RBD coated at 2 μg/mL, antibody at 10, 1, 0.1 and 0.01 μg/mL. (In general: ELISA stands for enzyme-linked immunosorbent assay.)
The target of assay [2] is T1, SARS-CoV-1的RBD重组蛋白 SARS-CoV1-RBD.

In general, Kd refers to the concentration at which binding is half-saturated.

B1: 小鼠单克隆抗体36H6 (antibody, V domains shown)
VH: EVQLQQSGPELVNPGASVKISCKTSGYTFTEYTMHWVKQSHGKSLEWIGGINPNNGDTIYNQKFKGKATLTVDKSSSTAYMELRSLTSEDSAVFYCAREGDYYVSSYGYWGQGTTLTVSS
VL: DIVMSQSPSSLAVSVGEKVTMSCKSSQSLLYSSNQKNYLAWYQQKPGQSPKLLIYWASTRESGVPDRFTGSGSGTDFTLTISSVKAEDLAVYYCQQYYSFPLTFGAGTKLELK
B1: the binding result in assay [1] is given as “no binding (tested: 10μg/mL)”.

B2: 小鼠单克隆抗体2B4 (antibody, V domains shown)
VH: QVQLQQPGAELVRPGASVKLSCKASGYTFTSYWMNWVKQRPEQGLEWIGRIDPYDSETHYNQKFKDKAILTVDKSSTTAYMQLSSLTSEDSAVYYCARWGTVEWFFDYWGQGTTLTVSQ
VL: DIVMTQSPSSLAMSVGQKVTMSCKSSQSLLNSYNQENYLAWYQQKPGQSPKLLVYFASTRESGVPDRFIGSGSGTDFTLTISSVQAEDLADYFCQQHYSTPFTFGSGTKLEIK
B2 registered a Kd in assay [2] of 34.1 nM.
